Measurements published in publication doi:10.1101/602623.

T1: Cas1-2 integrase complex Wt (Escherichia coli (type I-E), UniProt Q46896;P45956 1-305;1-94)
T1 sequence 1: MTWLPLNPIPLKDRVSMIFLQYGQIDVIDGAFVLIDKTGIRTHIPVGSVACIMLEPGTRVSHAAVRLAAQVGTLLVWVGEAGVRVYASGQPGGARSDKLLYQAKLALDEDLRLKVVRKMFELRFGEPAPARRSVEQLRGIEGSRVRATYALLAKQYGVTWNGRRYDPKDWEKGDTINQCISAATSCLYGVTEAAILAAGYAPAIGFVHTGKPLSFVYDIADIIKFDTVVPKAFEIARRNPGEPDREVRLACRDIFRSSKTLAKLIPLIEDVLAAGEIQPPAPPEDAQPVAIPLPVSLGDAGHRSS
T1 sequence 2: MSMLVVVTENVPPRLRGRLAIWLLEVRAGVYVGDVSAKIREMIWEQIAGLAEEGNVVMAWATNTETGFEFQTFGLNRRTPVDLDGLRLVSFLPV

T2: Cas1-2 Y22A (Escherichia coli (type I-E), UniProt Q46896;P45956 1-305;1-94, Y22A)
T2 sequence 1: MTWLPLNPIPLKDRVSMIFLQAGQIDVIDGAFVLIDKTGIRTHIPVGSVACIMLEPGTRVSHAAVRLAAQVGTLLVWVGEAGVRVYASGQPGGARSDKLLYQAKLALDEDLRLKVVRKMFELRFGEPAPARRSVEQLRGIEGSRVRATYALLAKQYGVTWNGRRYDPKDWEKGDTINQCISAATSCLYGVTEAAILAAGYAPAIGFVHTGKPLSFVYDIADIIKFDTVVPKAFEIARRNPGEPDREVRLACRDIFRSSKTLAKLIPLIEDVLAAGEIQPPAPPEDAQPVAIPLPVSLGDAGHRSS
T2 sequence 2: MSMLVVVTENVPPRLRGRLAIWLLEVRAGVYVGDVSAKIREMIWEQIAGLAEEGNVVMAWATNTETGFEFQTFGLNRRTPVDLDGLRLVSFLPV


Columns and labels:
[1] = biological target: T1, Cas1-2 integrase complex Wt; assay: EMSA
[2] = biological target: T1, Cas1-2 integrase complex Wt; assay: T5 exonuclease footprinting
[3] = biological target: T2, Cas1-2 Y22A; assay: EMSA

Binder | Kd [1] | binding result [2] | Kd [3]
P23[3'-10] (dsDNA) DNA 1: ATTTACTACTCGTTCTGGTGTTTCTCGTCAGGG DNA 2: AAACACCAGAACGAGTAGTAAATTGGGCTTGAG | 286 nM | – | –
P23[3'-5] (dsDNA) DNA 1: ATTTACTACTCGTTCTGGTGTTTCTCGT DNA 2: AAACACCAGAACGAGTAGTAAATTGGGC | 254 nM | – | –
P63mPAMT* (dsDNA) DNA 1: CTCCGCGCTGTAGCCCTCACCACTGTTGTGCACGACGACACCAGTCCGTGGCGTTATCCAGCT DNA 2: AGCTGGATAACGCCACGGACTGGTGTCGTCGTGCACAACAGTGGTGAGGGCTACAGCGCGGAG | – | binds | –
P63mPAMB* (dsDNA) DNA 1: CTCCGCGCTGTAGCCCTCACCACTGTTGTGCACGACGACACCAGTCCGTGGCGTTATCCAGCT DNA 2: AGCTGGATAACGCCACGGACTGGTGTCGTCGTGCACAACAGTGGTGAGGGCTACAGCGCGGAG | – | binds | –
P63 (dsDNA) DNA 1: CTCCGCGCTGTAGAAGTCACCATTGTTGTGCACGACGACATCATTCCGTGGCGTTATCCAGCT DNA 2: AGCTGGATAACGCCACGGAATGATGTCGTCGTGCACAACAATGGTGACTTCTACAGCGCGGAG | 831 nM | – | 6220 nM
P33 (dsDNA) DNA 1: GCCCAATTTACTACTCGTTCTGGTGTTTCTCGT DNA 2: ACGAGAAACACCAGAACGAGTAGTAAATTGGGC | 2660 nM | – | –
